{"source": "paper PMC9352346", "target": "GST-Smad4-linker-MH2", "assay": "GST pull-down, immunoblot band quantification", "conditions": "HEK293T cell lysate; n=3; read off a plot"}
{"substance": "Arl15-WT-GFP A86L", "values": [{"measurement": "other: relative amount of Arl15-AL-GFP pulled down", "value": 1.1}]}
